A short description of the data set: soluble on expression in E. coli; label from the status in PepcDB or PDB records.
Turning to “MPIHHAIVHLIEKKPDGTPAVLHARDAELGDSQAIENLLADLNESYNAKNKAWGFFQGESGAYPFSGWLGEYLEGDRDFVGFSREAVEHLQKLMEESNLSTGGHILFAHYQQGMTDYLAIALLHHSEGVAVNESLEVTPSRHLDLGQLHLAARINISEWRNNKQSKQYISFIKGKGGKKVSDYFRDFIGCQEGVDSPSETRTLLKAFSDFVESEDMAEEQAREKTETLVDYATSQARIGEPMTLDALSELMDDQQPRAFYDYIRNKDYGLSPEIPADKRTLNQFRRFTGRAEGLSISFEAHLLGSKVEYDEERDMLIIRQLPTQLKDQLKRRKDLEHHHHHH”, the “soluble on expression in E. coli” value is recorded as “not soluble”. Then “MKKVALVTGAGQGIGKAIALRLVKDGFAVAIADYNDATAKAVASEINQAGGHAVAVKVDVSDRDQVFAAVEQARKTLGGFDVIVNNAGVAPSTPIESITPEIVDKVYNINVKGVIWGIQAAVEAFKKEGHGGKIINACSQAGHVGNPELAVYSSSKFAVRGLTQTAARDLAPLGITVNGYCPGIVKTPMWAEIDRQVSEAAGKPLGYGTAEFAKRITLGRLSEPEDVAACVSYLASPDSDYMTGQSLLIDGGMVFN”, with “soluble”; and “MGSDKIHHHHHHLYRIFRPIARFIVWVLNGHLHVHHKERLPEGTYILVAPHRNWWEPILFALAASPTEFMFMTKQELFKNPVLRWILNNAHAFPVNREHPSPSVIKIPVRGLKSEGLSLIMFPSGTRHSASLKSGALVIARMSGRPLLPAVYQGPLTFKGVLQRKGIEINFGNPIVIDRKTKLTPETEAAYNQQLEDAWKQIDQELDPDFHYEAK”, with “not soluble”; and “MGSDKIHHHHHHMLTMKPEFVAQLERVLSSVEMLLPRAVKPVNWSTCYAANWRRHSFSGFLQAVRVTDTTSLHELLGVEKQKEIMISNTRQFLKGLPANNALLWGSRGTGKSSLVKALLNEYACEGLRVIQVEKEDLIYLSDIFSAVEGEPYRFILLCDDLTFEPGELTYKILKSALDGSVYSPPENVLIYVTSNRRHLLPEYESDNIGWKLVNGELQESEATEEKIALSDRFGLWVPFHVFTQDRYLEAVRLCVEREARTREVDIPWSEQLRLDAIQWSHDKKKRCGRTAYQFSKHWVGKYLLARQAA”, with “not soluble”. Consider “RNVSFRMQPIRIPMGMIGGFIGGQIDEMISTSKDRRIDWSEVYSKDTLYGRGNSG”, for which the “soluble on expression in E. coli” value is “soluble”. Take “MKDCSNGCSAECTGEGGSKEVVGTFKAKDLIVTPATILKEKPDPNNLVFGTVFTDHMLTVEWSSEFGWEKPHIKPLQNLSLHPGSSALHYAVELFEGLKAFRGVDNKIRLFQPNLNMDRMYRSAVRATLPVFDKEELLECIQQLVKLDQEWVPYSTSASLYIRPTFIGTEPSLGVKKPTKALLFVLLSPVGPYFSSGTFNPVSLWANPKYVRAWKGGTGDCKMGGNYGSSLFAQCEAVDNGCQQVLWLYGEDHQITEVGTMNLFLYWINEDGEEELATPPLDGIILPGVTRRCILDLAHQWGEFKVSERYLTMDDLTTALEGNRVREMFGSGTACVVCPVSDILYKGETIHIPTMENGPKLASRILSKLTDIQYGREERDWTIVLS”: the “soluble on expression in E. coli” value is on record as “soluble”. On to “MSTPTPKVGFVSLGCPKALVDSERILTQLRMEGYEVVPTYEDADVVVVNTCGFIDSAKAESLEVIGEAIAENGKVIVTGCMGVEEHAIRDVHPSVLAVTGPQQYEQVVTAVHEVVPPKTEHNPLVDLVPPQGVKLTPRHYAYLKISEGCNHSCSFCIIPSMRGKLVSRPVGDVLSEAERLVKAGVKELLVISQDTSAYGVDLKYKTDFWNGQPVKTRMKELCEALSSMGVWVRLHYVYPYPNVDDVIPLMAAGKLLPYLDIPFQHASPKVLKAMKRPAFEDKTLARIKQWREICPELTIRSTFIVGFPGETEEDFQYLLDWLTEAQLDRVGCFQYSPVEGAPANELGLEPVPDEVKQDRWERFMAHQQAISAARLQLKVGKEIEVLIDEVDEQGAVGRSWADAPEIDGNVFVDSDELKPGDKVRVRITDADEYDLWAELVLEHHHHHH”, for which the “soluble on expression in E. coli” value is recorded as “soluble”. With “SLYDGDCPLCMREVNMLMERNEKHGTIKFVDISSNDYSPEDNQGLDYKTVMGQIHAIQSDGNVVKGVEAFRRLYEEVGLGWVYTITKFEPIGKLADVVYDVWAKYRLQVTGRPSIEAILEARKKDKVGNKGYRFSVVVTFAR”, the “soluble on expression in E. coli” value was “soluble”. With “MNTILAQQIANEGGVEAWMIAQQHKSLLRFLTCGSVDDGKSTLIGRLLHDTLQIYEDQLSSLHNDSKRHGTQGEKLDLALLVDGLQAEREQGITIDVAYRYFSTERRKFIIADTPGHEQYTRNMATGASTCDLAILLIDARKGVLDQTRRHSFISTLLGIKHLVVAINKMDLVDYREETFARIREDYLTFAEQLPGDLDIRFVPLSALEGDNVAAQSANMRWYSGPTLLEVLETVDIQRAVDRQPMRFPVQYVNRPNLDFRGYAGTLASGSVKVGERIKVLPSGVESSVARIVTFDGDKEEACAGEAITLVLNDDIDISRGDLLLAANETLAPARHAAIDVVWMAEQPLAPGQSYDVKLAGKKTRARIEAIRYQIDINNLTQRDVESLPLNGIGLVEMTFDEPLALDIYQQNPVTGGLIFIDRLSNVTVGAGMVRELDERGATPPVEYSAFELELNALVRRHFPHWDARDLLGDKHGAA”, the “soluble on expression in E. coli” value is “not soluble”. With “MIYEFCAENVTLLEKAMQAGARRIELCDNLAVGGTTPSYGVTKAAVELAANYDTTIMTMIRPRGGDFVYNDLEIAIMLEDIRLTAQAGSQGVVFGALTADKKLDKPNLEKLIAASKGMEIVFHMAFDELSDEDQAEAIDWLSQAGVTRILTRAGVSGDSLEKRFVHYHRILEYAKGKIEILPGGGIDLENRQTFIDQVGVTQLHGTKVVFLEHHHHHH”, the “soluble on expression in E. coli” value was “soluble”. On to “MAHHHHHHMKKNLIRWGEKVTDELTKVTLTDKPLGTDFDQGIENLQIKFKELFKIWKNASNKLINDFTSKLDTTSYLSSLQNFVDNEYEFYDSASSVCDEETNS”, for which the “soluble on expression in E. coli” value is given as “not soluble”. As to “MDTYQNMNFHDNINSNIPKNYNSFYEELKKNLNESDILTIAYEVEVLKNIKKINCDEIGKNWDYSFIDSEYGKSTLVILEVGYHLISPYIENNENKKKKLQLFLLLINSMYFPNPYHNANHGATVCHLSKCLAHITDYDSYLNNTYMICYLIASIAHDVGHPGKTNSYLSETNHILSIRYNDMSILENYHCSITFSILQLIGFDFLINNEDTKLVEKNNYTNMRKFIIELIISTDMKLHFEYVDIFKKRKKSQNFDISDTDAINLGTINIKLADIGHTCLKWKDHAKWTMLVSEEFFSQKRVEELHKNKNIDPLNFSNFGKEDNIDEGMIFNYENIYINYINNINNINTYDYSYIKLNFIHHHDFVKSIPSTQVYFFEIIVMPLIKELQSMEKSKKEITQKVLHNLNINLQTWRLIEKNINLFYNTEKMTGTDYYKNLEKQKLLRGIRLLDIAEEDVISLTKNFKEEIKHG”, the “soluble on expression in E. coli” value is reported as “not soluble”. “EVRALQLEYDQSMEAYQKLVEISPDAIYIQSMEGEILFANPSGIKLLGATDLNELVGLSVMNFIHPDYLNVVENRIGDAENLSGNISEQKAVTLKGEILDIEVVSVAFSYNGKAAEQVIVRNVT”: the “soluble on expression in E. coli” value was “not soluble”. Then “MGSDKIHHHHHHMSEISAIWERIEAWHAANDQTENLNPGATAEALAQAEKDMGLTFPPEMRESLLRHDGSVDDSWPTGELLSLERMADERKVWMDLLQDGTFDGNASHNESSEALQPGWWNPAWIPLDADGGGNGAVIDLAPGPQGTVGQVIDMDHEVGPSGPKYVSLAAYLEAMLERLSEAEE”, with “not soluble”; and “MPSRYTNILVPVDSSDAAQAAFTEAVNIAQRHQANLTALYVVDDSAYHTPALDPVLSELLDAEAAHAKDAMRQRQQFVATTSAPNLKTEISYGIPKHTIEDYAKQHPEIDLIVLGATGTNSPHRVAVGSTTSYVVDHAPCNVIVIR”, with “not soluble”.

For “MTEEKPKIGRPPVLSCAERTCQILRAAEQVFVCHGYSGTTMDRIACAAGMSKRTLYQHFPDKLAVLQGILRAYDAGPLMESLTDPDPPGSAREILHRSLVEILRFLLCPAQVALTRLAVSEATAAPEVARLFYDNAMGGLSAAFTRRIAGLAAQGRIRCSDADWLGSSLVGCALNRQLLRRLTHPEAGPPDVAELERRVSALLDLVGPSLGFAD”, the “soluble on expression in E. coli” value is “not soluble”.

Turning to “MSLTGRAVIGVIGNAHLVDNRFAVQHVGERNLRAVAEVAGALPLMFGGSSEFAQIEDLLEVVDGILLTGGRANVHPTYFKTAPNPRHEPYDQPRDELALALVRTCVERGVPLFGICRGFQEMNVAYGGSLHPEIRELPGRMNHRMPRLENGEIHPDPTVVFADRHDVQLTSDGVFARLLGRDLIRVNSLHGQGILEPGPRIVIEGVAEDGTIEAIRIADAPGFALGVQWHAEYDPQVNPINRALFVAFGEAVSAYRTARKRPAALRRSEGHHHHHH”, the “soluble on expression in E. coli” value is listed as “soluble”. For the sequence “MSLKYEKIAFFRFFGRLNDFFRNSERIKTHRFTGFQTVKDRIEALGVPHVEVSLITLNGKPVGFDHMVEDGELFFVYPEFQNIEIPEDWLVTPRYIGEPRFVLDIHLGKLARLLRMLGFEAVFGEESDEKLCWMAVKKKAILLSRDTGLLKRKELVFGYYVRNTDPKEQLVEVVERYDLKKWMKPFTRCIECGVELEEVPKEAVKNRVPPKVYGFFNEFARCPVCGRIYWKGSHYDHMVEFIKSNINKGEGHHHHHH”, the “soluble on expression in E. coli” value was “soluble”.

Turning to “DLQNMDATNWLGNSVSEGFIHQFQRRGFKVVDFKTTGSIQVTQQGDFALSRDWQDLAQEQQIQYVLTGTMLRQEGGVLVNARVVGMQSRVVVATAQGFLPADRIGRDLDTLNSIRTQDGVLIRSDPTIRQPYTVILRP”, the “soluble on expression in E. coli” value is given as “not soluble”. Then “MGILDKVKNLLSQNADKVETVINKAGEFVDEQTQGNYSDAIHKLHDAASNVVGMSDQQS”, with “soluble”; and “MGSDKIHHHHHHMSTSAPINRRLTKKIYVGDVAIGGDAPISVQSMTNTDTCDVAATVAQIERCVEAGADLMRVSTPTMDTVKAFGEIRKLVSVPLIADVHFDHKIALAVAAAGADCLRINPGNIGSDAKVREVVACAKHYNIPIRIGVNAGSLEKDIQRKYKEPNGAAMLESAMRHIDILERLNFDQYKVSVKASNVFLTMDAYRLISAQIDNPLHLGVTEAGVYRTGSVKSAIALGGLLLDGIGDTIRISLAAEPEEEIKIGFDILKSLNIRSNGVNFIACPSCSRQEFDVIRVMTALESRLEDIREPMNLSVIGCKVNGPGEAKEADIGIVGAAPKSLVYRMGEKSHLIDTDNLVDEIEGMVRAHAEELAKKRENEIIRVR”, with “not soluble”; and “MGSDKIHHHHHHMETDRLIIMDKLRAMRMFVRVVDAGSFSRVANELNVTTSMISKEIGRLEEDLGVRLLHRSTRGQQLTSIGEGYLKRCRELLVQVDDADAYVQHMQENPRGKLRINAPMALGITDLSQLFSAYMKQYPDVELDIQLGDESLDLIEHGFDLGFRASSQMLDSNYVGKPLVSFTYKVCASASYLESHPPIREVEDLAAHNCFVYSYFKSGNFWPLAQGITVAGSLKVNSTLFMKQVIEDGLGIGFLPSFVAREGIEQGKLVEVLPEVGRPDLTLYALYPNRLFTPPKLLSCIEFLQSWFLSRNLDEGWLQ”, with “not soluble”. “SPTPVELHKVTLYKDSGMEDFGFSVADGLLEKGVYVKNIRPAGPGDLGGLKPYDRLLQVNHVRTRDFDCCLVVPLIAESGNKLDLVISRNP”: the “soluble on expression in E. coli” value is “soluble”. In the case of “GMDIINNRRSIRNYKGKKVEKEKIEKLLRAAMQAPSAGNQQPWEFIVLEDRENIDKLSNFSKYANSLKTAPLAIVLLADEEKMKISEMWEQDMAAAAENILLEAAYLDLGAVWLGAQPIEERVKNLKEMFNLKSNIKPFCVISVGYPENSENKFIDRFDAKRIHIEKY”, the “soluble on expression in E. coli” value is given as “soluble”.

For the origin of these results see the DeepSol protein solubility set.
